In patent publication US7291332B2, “Inflammatory mediator antagonists” (SmithKline Beecham Corporation, priority 1998, dated 2007):
Entries after “also recorded” stand apart in the source; their conditions may differ.

T1: gp130-Fc (Homo sapiens, UniProt P40189)
T1 construct: DNA encoding the extracellular domain of human gp130 was amplified; made in house; host or cells: insect cells (Bac-to-Bac baculovirus) for gp130-Fc; E. coli BLR-DE3 for OSM
T1 sequence (P40189 23-619 limits assumed): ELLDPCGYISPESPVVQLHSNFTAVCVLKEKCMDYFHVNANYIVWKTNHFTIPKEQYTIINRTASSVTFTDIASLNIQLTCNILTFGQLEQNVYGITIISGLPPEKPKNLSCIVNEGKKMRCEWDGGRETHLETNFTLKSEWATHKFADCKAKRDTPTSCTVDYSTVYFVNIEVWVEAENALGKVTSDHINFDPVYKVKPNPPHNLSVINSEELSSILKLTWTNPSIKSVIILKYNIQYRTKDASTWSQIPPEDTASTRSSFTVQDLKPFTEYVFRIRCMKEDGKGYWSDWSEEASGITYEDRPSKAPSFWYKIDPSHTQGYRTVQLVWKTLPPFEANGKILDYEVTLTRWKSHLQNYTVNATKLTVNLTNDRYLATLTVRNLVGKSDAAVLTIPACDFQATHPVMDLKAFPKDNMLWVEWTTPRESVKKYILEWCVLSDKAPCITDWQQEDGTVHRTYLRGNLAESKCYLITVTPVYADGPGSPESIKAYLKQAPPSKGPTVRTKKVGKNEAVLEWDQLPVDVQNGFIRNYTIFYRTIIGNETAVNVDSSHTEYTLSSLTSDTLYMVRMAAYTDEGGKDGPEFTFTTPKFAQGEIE


Experiments:
[1] = biological target: T1, gp130-Fc; assay: Competition of OSM-GST with plate-bound wild type OSM for binding to gp130-Fc (ELISA); conditions: for inhibition: at the maximum concentration tested (10 μg/ml)
Method: Nunc Immunoplates (F6 Maxisorp, Life Technologies) were coated overnight (4° C.) with wild type OSM (produced according to Example 7a); 50 μl/well, 1 μg/ml in carbonate/bicarbonate buffer pH 9.4). Plates were washed (×6 in PBS 0.05% tween 20, using Skatron Plate washer), tapped dry and blocked to reduce non-specific binding (200 μl/well, 1% BSA/PBS). Following 1 h incubation (room temperature on a shaking platform) the plates were tapped dry and wild type (wt) or mutant OSM-GST from Example 9b added (50 μl/well, 20-0.002 μg/ml, titrated in 1%BSA/PBS). As a positive control polyclonal anti-human OSM antibody (R&D Systems) was also tested (20-0.02 μg/ml). A complex of gp130-Fc (Produced as below 300 ng/ml) and anti-human IgG alkaline phosphatase conjugate (1:500, Sigma) in 1% BSA/PBS (50 μl/well) was added immediately after the agents under test. Following a 5 h incubation (room temperature on a shaking platform) the plates were washed (×6) and developed using ELISA Amplification System (Life Technologies) as manufacturer's instructions and the OD measured at 490 nm. On each plate the total binding was determined by gp130-Fc/conjugate and OSM in the presence of 1% BSA/PBS, and non-specific binding by gp130-Fc/conjugate in absence of OSM, or conjugate binding to OSM in absence of gp130-Fc.
Mutant and wt OSM-GST were tested to obtain IC50 in 3-6 experiments. The mean OD in the presence of OSM and gp130-Fc in the absence of competing ligand (i.e., total binding) was 1.157 (range 0.825-1.807) and the non specific binding was less than 0.08.

[2] = system: HepG2 B6 cells (STAT-sPAP reporter); assay: OSM-GST mutant driven sPAP production in HepG2 B6 assay; format: cell-based, human; conditions: for 'Potency': relative to wild type, from Mean %
Method: HepG2 B6 cells were plated into 96 well plates to a final concentration of 3×10^4 cells per well in 100 μl of media (DMEM (Sigma), 10% HI FCS, 1% non-essential amino acids, 2 mM Glutamine, 500 μg ml^−1 G418, (all from Life Technologies)). Cells were allowed to equilibrate for 48 hours. Putative anti-OSM solid compounds were made up to a stock dilution of 20 mM in DMSO and serially diluted 1:3 in DMSO. This was then further diluted in HepG26B assay media, this is as above media but with 1% heat inactivated FCS, low alkaline phosphatase activity (Life Technologies) substituted for 10% HI FCS. Compounds were diluted 1:3 from a top concentration of […] to a final concentration of 0.09 μM in a final concentration of 1% DMSO. (That is 200, 66.67, 22.22, 7.41, 2.47, 0.82, 0.27, 0.09 and 0 μM). The old media was removed from the wells and replaced with diluted compound also containing 2 ng ml^−1 OSM (R&D Systems), cells were incubated for a further 20 hours. Each dilution was performed in triplicate. 20 μl of media was removed from each well and assayed for sPAP activity using pNPP (p-Nitrophenyl phosphate; Sigma), as a substrate. Endogenous alkaline phosphatase is blocked with L-homoarginine. Optical density of substrate is read at 405-650 nm. Concentration of compound is plotted against OD as a measure of sPAP produced and can be analysed to determine IC50 values.
The assay described in Example 7b above was employed. OSM-GST mutants were diluted to a concentration of 100 ng ml^−using the known concentration of intact OSM mutants generated in Example 9b. A wild type OSM-GST was included for control purposes. Dilutions were made in HepG2 B6 media with 1% heat inactivated FCS, low alkaline phosphatase activity. Serial 1:3 dilutions were then made. (100; 33.33; 11.11; 3.7; 1.23; 0.4 ng ml^−1). 3×10^4 HepG2 B6 were dispensed into individual well of a 96 well plate in 100 μl of media. Cells were allowed to equilibrate for 48 hours. Media was then removed and replaced with 100 μl of diluted OSM-GST mutant. Cells were incubated for a further 20 hours. Each dilution was performed in triplicate. 20 μl of media was removed and assayed for sPAP using pNPP as a substrate. Endogenous ALP was blocked with L-homoarginine. O.D. was read at 405-650 nm. The experiment was repeated twice.

| Molecule | ability to compete with wt OSM for gp130 binding [1] | inhibition [1] | Expt 1 EC50 [2] | Expt 2 EC50 [2] | driving sPAP production [2] | 'Potency' [2] |
| --- | --- | --- | --- | --- | --- | --- |
| (1) S7A: OSM-GST fusion, alanine for Ser 7 (protein, left off: a dimerising Fc or GST; large carriers; small tags and cut ends) AAIGSCAKEYRVLLGQLQKQTDLMQDTSRLLDPYIRIQGLDVPKLREHCRERPGAFPSEETLRGLGRRGFLQTLNATLGCVLHRLADLEQRLPKAQDLERSGLNIEDLEKLQMARPNILGLRNNIYCMAQLLDNSDTAEPTKAGRGASQPPTPTPASDAFQRKLEGCRFLHGYHRFMHSVGRVFSKWGESPNRSRR | – | – | 0.012 µg/mL | 0.0222 µg/mL | – | MORE (<80% More potent) |
| (3) E9A: OSM-GST fusion, alanine for Glu 9 (protein, left off: a dimerising Fc or GST; large carriers; small tags and cut ends) AAIGSCSKAYRVLLGQLQKQTDLMQDTSRLLDPYIRIQGLDVPKLREHCRERPGAFPSEETLRGLGRRGFLQTLNATLGCVLHRLADLEQRLPKAQDLERSGLNIEDLEKLQMARPNILGLRNNIYCMAQLLDNSDTAEPTKAGRGASQPPTPTPASDAFQRKLEGCRFLHGYHRFMHSVGRVFSKWGESPNRSRR | – | – | 0.0236 µg/mL | 0.0089 µg/mL | – | MORE (<80% More potent) |
| (9) Q16A: OSM-GST fusion, alanine for Gln 16 (protein, left off: a dimerising Fc or GST; large carriers; small tags and cut ends) AAIGSCSKEYRVLLGALQKQTDLMQDTSRLLDPYIRIQGLDVPKLREHCRERPGAFPSEETLRGLGRRGFLQTLNATLGCVLHRLADLEQRLPKAQDLERSGLNIEDLEKLQMARPNILGLRNNIYCMAQLLDNSDTAEPTKAGRGASQPPTPTPASDAFQRKLEGCRFLHGYHRFMHSVGRVFSKWGESPNRSRR | substantial decrease | 15±8% | – | – | less effective at driving sPAP production; also recorded: didn't drive sPAP at all | NONE |
| (2) K8A: OSM-GST fusion, alanine for Lys 8 (protein, left off: a dimerising Fc or GST; large carriers; small tags and cut ends) AAIGSCSAEYRVLLGQLQKQTDLMQDTSRLLDPYIRIQGLDVPKLREHCRERPGAFPSEETLRGLGRRGFLQTLNATLGCVLHRLADLEQRLPKAQDLERSGLNIEDLEKLQMARPNILGLRNNIYCMAQLLDNSDTAEPTKAGRGASQPPTPTPASDAFQRKLEGCRFLHGYHRFMHSVGRVFSKWGESPNRSRR | – | – | 0.016 µg/mL | 0.0125 µg/mL | – | MORE (<80% More potent) |
| (6) L13A: OSM-GST fusion, alanine for Leu 13 (protein) AAIGSCSKEYRVALGQLQKQTDLMQDTSRLLDPYIRIQGLDVPKLREHCRERPGAFPSEETLRGLGRRGFLQTLNATLGCVLHRLADLEQRLPKAQDLERSGLNIEDLEKLQMARPNILGLRNNIYCMAQLLDNSDTAEPTKAGRGASQPPTPTPASDAFQRKLEGCRFLHGYHRFMHSVGRVFSKWGESPNRSRR | substantial decrease | – | 0.0657 µg/mL | 0.0549 µg/mL | – | LESS (>120% Less potent than wild type) |

More lines, main results first:

| ability to compete with wt OSM for gp130 binding [1] | inhibition [1] | Expt 1 EC50 [2] | Expt 2 EC50 [2] | Molecule | driving sPAP production [2] | 'Potency' [2] |
| --- | --- | --- | --- | --- | --- | --- |
| substantial decrease | 66±2.3% | – | – | (13) Q20A: OSM-GST fusion, alanine for Gln 20 (protein, left off: a dimerising Fc or GST; large carriers; small tags and cut ends) AAIGSCSKEYRVLLGQLQKATDLMQDTSRLLDPYIRIQGLDVPKLREHCRERPGAFPSEETLRGLGRRGFLQTLNATLGCVLHRLADLEQRLPKAQDLERSGLNIEDLEKLQMARPNILGLRNNIYCMAQLLDNSDTAEPTKAGRGASQPPTPTPASDAFQRKLEGCRFLHGYHRFMHSVGRVFSKWGESPNRSRR | less effective at driving sPAP production; also recorded: didn't drive sPAP at all | NONE |
| substantial decrease | – | 0.0379 µg/mL | 0.0497 µg/mL | (22) N123A: OSM-GST fusion, alanine for Asn 123 (protein, left off: a dimerising Fc or GST; large carriers; small tags and cut ends) AAIGSCSKEYRVLLGQLQKQTDLMQDTSRLLDPYIRIQGLDVPKLREHCRERPGAFPSEETLRGLGRRGFLQTLNATLGCVLHRLADLEQRLPKAQDLERSGLNIEDLEKLQMARPNILGLRANIYCMAQLLDNSDTAEPTKAGRGASQPPTPTPASDAFQRKLEGCRFLHGYHRFMHSVGRVFSKWGESPNRSRR | – | LESS (>120% Less potent than wild type) |
| substantial decrease | – | – | – | (20) G120A: OSM-GST fusion, alanine for Gly 120 (protein, left off: a dimerising Fc or GST; large carriers; small tags and cut ends) AAIGSCSKEYRVLLGQLQKQTDLMQDTSRLLDPYIRIQGLDVPKLREHCRERPGAFPSEETLRGLGRRGFLQTLNATLGCVLHRLADLEQRLPKAQDLERSGLNIEDLEKLQMARPNILALRNNIYCMAQLLDNSDTAEPTKAGRGASQPPTPTPASDAFQRKLEGCRFLHGYHRFMHSVGRVFSKWGESPNRSRR | less effective at driving sPAP production; also recorded: didn't drive sPAP at all | NONE |
